Patent US9127040B2, “Regulation of sodium channels by PLUNC proteins” (The University of North Carolina at Chapel Hill, priority 2011, dated 2015)

Molecular target: T1, αβγENaC (Rattus norvegicus, UniProt P37089+P37090+P37091, R138K/R205K/R231K)
T1 construct: expressed in transfected cells; host or cells: Xenopus laevis oocytes (cRNA injection)
T1 sequence (P37089 1-698 R205K/R231K): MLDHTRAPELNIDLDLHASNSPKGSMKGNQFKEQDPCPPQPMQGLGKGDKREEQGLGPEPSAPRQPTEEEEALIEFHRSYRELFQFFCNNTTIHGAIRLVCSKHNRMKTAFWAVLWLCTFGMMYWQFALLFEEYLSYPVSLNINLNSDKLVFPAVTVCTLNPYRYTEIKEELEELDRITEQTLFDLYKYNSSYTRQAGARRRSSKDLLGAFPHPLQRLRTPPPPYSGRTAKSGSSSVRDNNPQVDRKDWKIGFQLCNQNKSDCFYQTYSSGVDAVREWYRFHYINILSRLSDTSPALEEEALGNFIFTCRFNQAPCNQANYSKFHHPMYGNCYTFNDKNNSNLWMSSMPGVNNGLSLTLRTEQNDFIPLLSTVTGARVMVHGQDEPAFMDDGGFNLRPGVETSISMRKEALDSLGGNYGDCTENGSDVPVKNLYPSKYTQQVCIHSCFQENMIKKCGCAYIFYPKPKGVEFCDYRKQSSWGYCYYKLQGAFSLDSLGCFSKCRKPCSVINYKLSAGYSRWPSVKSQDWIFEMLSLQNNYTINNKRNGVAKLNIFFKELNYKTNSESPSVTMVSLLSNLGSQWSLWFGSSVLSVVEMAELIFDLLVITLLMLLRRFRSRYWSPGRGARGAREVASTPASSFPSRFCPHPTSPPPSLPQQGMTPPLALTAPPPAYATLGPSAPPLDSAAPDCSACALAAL
T1 sequence (P37090 1-638): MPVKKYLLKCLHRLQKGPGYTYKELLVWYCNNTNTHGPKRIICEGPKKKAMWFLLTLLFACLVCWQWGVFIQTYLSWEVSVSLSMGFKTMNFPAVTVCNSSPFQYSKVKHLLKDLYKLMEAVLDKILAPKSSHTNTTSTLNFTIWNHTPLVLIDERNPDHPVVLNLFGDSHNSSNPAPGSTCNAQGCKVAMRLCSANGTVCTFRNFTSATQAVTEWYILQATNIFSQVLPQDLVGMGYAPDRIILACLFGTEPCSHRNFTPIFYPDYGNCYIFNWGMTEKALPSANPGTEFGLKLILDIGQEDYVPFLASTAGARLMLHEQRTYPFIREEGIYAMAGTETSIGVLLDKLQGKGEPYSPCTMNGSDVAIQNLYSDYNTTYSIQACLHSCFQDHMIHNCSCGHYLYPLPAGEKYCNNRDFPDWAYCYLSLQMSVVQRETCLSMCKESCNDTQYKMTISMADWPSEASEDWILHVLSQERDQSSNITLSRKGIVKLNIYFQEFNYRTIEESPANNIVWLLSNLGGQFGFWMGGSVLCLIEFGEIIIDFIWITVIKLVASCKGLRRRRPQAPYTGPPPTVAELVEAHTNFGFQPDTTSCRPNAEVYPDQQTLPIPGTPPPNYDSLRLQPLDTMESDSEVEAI
T1 sequence (P37091 1-650 R138K): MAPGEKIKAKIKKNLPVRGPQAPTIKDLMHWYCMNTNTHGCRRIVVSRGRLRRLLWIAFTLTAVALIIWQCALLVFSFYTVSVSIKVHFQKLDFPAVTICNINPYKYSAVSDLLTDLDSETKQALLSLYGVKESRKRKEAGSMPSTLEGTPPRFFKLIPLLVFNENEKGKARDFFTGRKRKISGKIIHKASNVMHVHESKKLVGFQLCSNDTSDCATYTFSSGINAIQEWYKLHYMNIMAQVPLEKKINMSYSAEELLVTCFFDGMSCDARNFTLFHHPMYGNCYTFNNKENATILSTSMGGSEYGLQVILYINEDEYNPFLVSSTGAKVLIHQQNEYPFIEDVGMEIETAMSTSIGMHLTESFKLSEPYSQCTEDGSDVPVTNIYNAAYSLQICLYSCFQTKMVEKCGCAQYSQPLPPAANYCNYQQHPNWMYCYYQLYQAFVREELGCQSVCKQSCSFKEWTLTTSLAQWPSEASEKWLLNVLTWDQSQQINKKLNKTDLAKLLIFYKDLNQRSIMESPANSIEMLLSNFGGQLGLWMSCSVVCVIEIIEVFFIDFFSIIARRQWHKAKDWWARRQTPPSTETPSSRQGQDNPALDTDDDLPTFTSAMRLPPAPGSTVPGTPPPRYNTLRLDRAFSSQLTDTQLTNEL
Test: Amiloride-sensitive whole cell current, two electrode voltage clamp, Xenopus laevis oocytes expressing αβγENaC
Type: cell-based
Conditions: SPLUNC1 co-expressed

B1: SPLUNC1: human SPLUNC1 (SEQ ID NO:1), 256 amino acid secreted PLUNC family protein; rSPLUNC1 is the purified V5/6His-tagged recombinant form (protein, listed as Homo sapiens)
chain: MFQTGGLIVFYGLLAQTMAQFGGLPVPLDQTLPLNVNPALPLSPTGLAGSLTNALSNGLLSGGLLGILENLPLLDILKPGGGTSGGLLGGLLGKVTSVIPGLNNIIDIKVTDPQLLELGLVQSPDGHRLYVTIPLGIKLQVNTPLVGASLLRLAVKLDITAEILAVRDKQERIHLVLGDCTHSPGSLQISLLDGLGPLPIQGLLDSLTGILNKVLPELVQGNVCPLVNEVLRGLDITLVHDIVNMLIHGLQFVIKV
modifications: V5/6His tag in recombinant form
notes: rSPLUNC1 is the purified V5/6His-tagged recombinant form
- current of furin-insensitive αR205,231K,β,γR138K ENaC mutant: also inhibited
